The chains are these.
T1: FcγRIIa H (FcγRIIa, allotype with His at position 131), extracellular domain with C-terminal His tag (human, UniProt P12318 34-217)
T1 construct: extracellular domain; Soluble receptor expressed in FreeStyle293 cells and used as the analyte in Biacore; also called FcgRIIa H; FcγRIIa type H; not shown: His tag attached to the C terminus
T1 sequence (looked up): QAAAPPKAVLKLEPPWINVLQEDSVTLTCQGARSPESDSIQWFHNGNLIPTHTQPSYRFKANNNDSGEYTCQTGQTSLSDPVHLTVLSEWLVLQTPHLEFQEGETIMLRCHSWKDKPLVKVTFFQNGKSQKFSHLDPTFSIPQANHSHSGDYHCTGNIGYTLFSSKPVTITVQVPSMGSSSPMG

B1: GpH7-B3 variant T335_04F/GpL16-k0 (homodimerized antibody, Ho Ab) (antibody, human IgG1, kappa)
heavy: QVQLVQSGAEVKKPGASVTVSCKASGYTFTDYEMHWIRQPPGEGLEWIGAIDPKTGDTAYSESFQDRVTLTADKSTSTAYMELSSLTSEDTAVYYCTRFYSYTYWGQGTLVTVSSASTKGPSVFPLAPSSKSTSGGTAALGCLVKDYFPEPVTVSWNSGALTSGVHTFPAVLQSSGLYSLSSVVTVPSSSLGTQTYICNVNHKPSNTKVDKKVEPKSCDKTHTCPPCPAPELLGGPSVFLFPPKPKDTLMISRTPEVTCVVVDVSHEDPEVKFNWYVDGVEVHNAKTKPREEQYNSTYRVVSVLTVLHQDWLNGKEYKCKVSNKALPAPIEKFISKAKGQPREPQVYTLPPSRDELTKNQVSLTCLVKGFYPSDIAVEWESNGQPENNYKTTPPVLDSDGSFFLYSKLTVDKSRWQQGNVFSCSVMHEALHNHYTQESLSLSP
light: DIVMTQSPLSLPVTPGEPASISCQASESLVHSNRNTYLHWYLQKPGQSPQLLIYKVSNRFSGVPDRFSGSGSGTDFTLKISRVEAEDVGVYYCSQNTHVPPTFGQGTKVEIERTVAAPSVFIFPPSDEQLKSGTASVVCLLNNFYPREAKVQWKVDNALQSGNSQESVTEQDSKDSTYSLSSTLTLSKADYEKHKVYACEVTHQGLSSPVTKSFNRGEC
notes: Anti-glypican-3 IgG1 (GpH7-B3 background); substitution in both H chains; Position is EU numbering; also called Ho Ab T335F
B2: GpH7-B3 variant T335_08L/GpL16-k0 (homodimerized antibody, Ho Ab) (antibody, human IgG1, kappa)
heavy: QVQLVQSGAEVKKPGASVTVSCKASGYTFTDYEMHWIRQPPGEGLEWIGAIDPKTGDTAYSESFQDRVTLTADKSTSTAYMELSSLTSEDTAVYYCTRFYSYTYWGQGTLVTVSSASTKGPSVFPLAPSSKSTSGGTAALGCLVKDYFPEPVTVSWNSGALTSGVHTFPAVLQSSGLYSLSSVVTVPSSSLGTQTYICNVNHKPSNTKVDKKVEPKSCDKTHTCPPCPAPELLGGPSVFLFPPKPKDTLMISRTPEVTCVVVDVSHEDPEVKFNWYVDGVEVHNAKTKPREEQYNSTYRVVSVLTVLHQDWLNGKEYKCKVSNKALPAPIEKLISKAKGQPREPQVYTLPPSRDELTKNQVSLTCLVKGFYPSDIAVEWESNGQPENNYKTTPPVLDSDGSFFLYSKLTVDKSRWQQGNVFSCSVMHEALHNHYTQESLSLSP
light: DIVMTQSPLSLPVTPGEPASISCQASESLVHSNRNTYLHWYLQKPGQSPQLLIYKVSNRFSGVPDRFSGSGSGTDFTLKISRVEAEDVGVYYCSQNTHVPPTFGQGTKVEIERTVAAPSVFIFPPSDEQLKSGTASVVCLLNNFYPREAKVQWKVDNALQSGNSQESVTEQDSKDSTYSLSSTLTLSKADYEKHKVYACEVTHQGLSSPVTKSFNRGEC
notes: Anti-glypican-3 IgG1 (GpH7-B3 background); substitution in both H chains; Position is EU numbering; also called Ho Ab T335L
B3: GpH7-B3 variant Y300_06M/GpL16-k0 (homodimerized antibody, Ho Ab) (antibody, human IgG1, kappa)
heavy: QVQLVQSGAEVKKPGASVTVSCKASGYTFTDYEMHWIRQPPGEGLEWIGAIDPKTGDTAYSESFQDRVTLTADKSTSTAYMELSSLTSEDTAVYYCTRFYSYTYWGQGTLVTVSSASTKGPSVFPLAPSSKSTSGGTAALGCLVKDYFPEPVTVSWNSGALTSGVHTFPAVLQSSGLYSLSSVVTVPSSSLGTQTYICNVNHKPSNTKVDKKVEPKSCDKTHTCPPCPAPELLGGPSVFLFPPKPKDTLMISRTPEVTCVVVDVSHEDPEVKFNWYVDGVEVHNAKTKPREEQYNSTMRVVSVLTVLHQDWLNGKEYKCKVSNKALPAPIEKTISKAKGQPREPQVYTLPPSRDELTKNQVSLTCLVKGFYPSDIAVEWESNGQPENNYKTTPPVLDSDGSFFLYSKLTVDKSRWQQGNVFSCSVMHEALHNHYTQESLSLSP
light: DIVMTQSPLSLPVTPGEPASISCQASESLVHSNRNTYLHWYLQKPGQSPQLLIYKVSNRFSGVPDRFSGSGSGTDFTLKISRVEAEDVGVYYCSQNTHVPPTFGQGTKVEIERTVAAPSVFIFPPSDEQLKSGTASVVCLLNNFYPREAKVQWKVDNALQSGNSQESVTEQDSKDSTYSLSSTLTLSKADYEKHKVYACEVTHQGLSSPVTKSFNRGEC
notes: Anti-glypican-3 IgG1 (GpH7-B3 background); substitution in both H chains; Position is EU numbering; also called Ho Ab Y300M
B4: GpH7-B3 variant T335_05P/GpL16-k0 (homodimerized antibody, Ho Ab) (antibody, human IgG1, kappa)
heavy: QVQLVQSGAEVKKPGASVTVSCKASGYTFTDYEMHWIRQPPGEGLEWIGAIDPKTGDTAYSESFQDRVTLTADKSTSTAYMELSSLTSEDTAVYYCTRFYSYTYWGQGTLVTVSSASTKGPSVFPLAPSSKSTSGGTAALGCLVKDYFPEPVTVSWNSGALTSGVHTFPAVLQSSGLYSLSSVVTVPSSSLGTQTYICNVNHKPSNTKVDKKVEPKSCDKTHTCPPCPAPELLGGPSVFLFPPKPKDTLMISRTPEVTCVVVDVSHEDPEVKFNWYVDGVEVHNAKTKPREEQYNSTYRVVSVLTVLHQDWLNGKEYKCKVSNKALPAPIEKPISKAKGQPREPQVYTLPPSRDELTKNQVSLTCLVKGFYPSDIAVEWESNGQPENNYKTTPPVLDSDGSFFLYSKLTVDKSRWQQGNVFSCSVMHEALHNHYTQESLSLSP
light: DIVMTQSPLSLPVTPGEPASISCQASESLVHSNRNTYLHWYLQKPGQSPQLLIYKVSNRFSGVPDRFSGSGSGTDFTLKISRVEAEDVGVYYCSQNTHVPPTFGQGTKVEIERTVAAPSVFIFPPSDEQLKSGTASVVCLLNNFYPREAKVQWKVDNALQSGNSQESVTEQDSKDSTYSLSSTLTLSKADYEKHKVYACEVTHQGLSSPVTKSFNRGEC
notes: Anti-glypican-3 IgG1 (GpH7-B3 background); substitution in both H chains; Position is EU numbering; also called Ho Ab T335P
B5: GpH7-B3 variant Y300_07I/GpL16-k0 (homodimerized antibody, Ho Ab) (antibody, human IgG1, kappa)
heavy: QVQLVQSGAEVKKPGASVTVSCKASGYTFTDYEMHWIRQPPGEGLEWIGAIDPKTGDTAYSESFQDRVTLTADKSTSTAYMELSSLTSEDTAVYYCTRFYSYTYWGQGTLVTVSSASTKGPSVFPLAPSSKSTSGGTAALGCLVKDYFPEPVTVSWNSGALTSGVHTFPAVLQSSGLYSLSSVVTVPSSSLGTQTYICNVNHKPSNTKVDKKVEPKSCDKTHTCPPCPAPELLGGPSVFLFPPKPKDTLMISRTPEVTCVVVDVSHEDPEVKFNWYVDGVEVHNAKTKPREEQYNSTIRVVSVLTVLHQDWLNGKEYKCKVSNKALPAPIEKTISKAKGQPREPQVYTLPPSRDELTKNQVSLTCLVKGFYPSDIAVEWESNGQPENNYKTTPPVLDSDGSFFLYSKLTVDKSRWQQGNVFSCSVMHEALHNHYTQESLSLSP
light: DIVMTQSPLSLPVTPGEPASISCQASESLVHSNRNTYLHWYLQKPGQSPQLLIYKVSNRFSGVPDRFSGSGSGTDFTLKISRVEAEDVGVYYCSQNTHVPPTFGQGTKVEIERTVAAPSVFIFPPSDEQLKSGTASVVCLLNNFYPREAKVQWKVDNALQSGNSQESVTEQDSKDSTYSLSSTLTLSKADYEKHKVYACEVTHQGLSSPVTKSFNRGEC
notes: Anti-glypican-3 IgG1 (GpH7-B3 background); substitution in both H chains; Position is EU numbering; also called Ho Ab Y300I
B6: GpH7-B3 variant T335_09D/GpL16-k0 (homodimerized antibody, Ho Ab) (antibody, human IgG1, kappa)
heavy: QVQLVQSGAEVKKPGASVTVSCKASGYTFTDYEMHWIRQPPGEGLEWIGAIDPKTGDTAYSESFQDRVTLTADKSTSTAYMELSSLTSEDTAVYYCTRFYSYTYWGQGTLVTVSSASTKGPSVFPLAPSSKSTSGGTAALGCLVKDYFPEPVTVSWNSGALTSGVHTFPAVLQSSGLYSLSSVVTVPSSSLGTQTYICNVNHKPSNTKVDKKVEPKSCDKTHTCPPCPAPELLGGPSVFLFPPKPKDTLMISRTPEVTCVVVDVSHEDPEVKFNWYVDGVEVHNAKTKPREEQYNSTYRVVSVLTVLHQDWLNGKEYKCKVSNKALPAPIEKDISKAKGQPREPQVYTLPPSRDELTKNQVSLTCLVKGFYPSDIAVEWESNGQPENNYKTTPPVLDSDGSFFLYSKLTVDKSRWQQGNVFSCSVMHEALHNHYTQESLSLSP
light: DIVMTQSPLSLPVTPGEPASISCQASESLVHSNRNTYLHWYLQKPGQSPQLLIYKVSNRFSGVPDRFSGSGSGTDFTLKISRVEAEDVGVYYCSQNTHVPPTFGQGTKVEIERTVAAPSVFIFPPSDEQLKSGTASVVCLLNNFYPREAKVQWKVDNALQSGNSQESVTEQDSKDSTYSLSSTLTLSKADYEKHKVYACEVTHQGLSSPVTKSFNRGEC
notes: Anti-glypican-3 IgG1 (GpH7-B3 background); substitution in both H chains; Position is EU numbering; also called Ho Ab T335D
B7: GpH7-B3 variant Y300_08L/GpL16-k0 (homodimerized antibody, Ho Ab) (antibody, human IgG1, kappa)
heavy: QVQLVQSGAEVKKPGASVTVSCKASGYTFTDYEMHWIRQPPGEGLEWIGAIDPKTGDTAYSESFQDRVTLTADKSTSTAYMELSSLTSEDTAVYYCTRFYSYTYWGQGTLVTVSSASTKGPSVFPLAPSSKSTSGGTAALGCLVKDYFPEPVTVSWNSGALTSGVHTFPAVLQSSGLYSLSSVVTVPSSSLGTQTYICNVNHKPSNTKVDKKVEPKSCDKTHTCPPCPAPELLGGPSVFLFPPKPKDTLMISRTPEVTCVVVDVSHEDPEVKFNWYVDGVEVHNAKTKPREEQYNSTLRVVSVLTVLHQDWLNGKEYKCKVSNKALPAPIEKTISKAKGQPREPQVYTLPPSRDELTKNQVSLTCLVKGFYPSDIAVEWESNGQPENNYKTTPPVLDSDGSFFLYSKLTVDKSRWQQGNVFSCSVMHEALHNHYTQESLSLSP
light: DIVMTQSPLSLPVTPGEPASISCQASESLVHSNRNTYLHWYLQKPGQSPQLLIYKVSNRFSGVPDRFSGSGSGTDFTLKISRVEAEDVGVYYCSQNTHVPPTFGQGTKVEIERTVAAPSVFIFPPSDEQLKSGTASVVCLLNNFYPREAKVQWKVDNALQSGNSQESVTEQDSKDSTYSLSSTLTLSKADYEKHKVYACEVTHQGLSSPVTKSFNRGEC
notes: Anti-glypican-3 IgG1 (GpH7-B3 background); substitution in both H chains; Position is EU numbering; also called Ho Ab Y300L
B8: GpH7-B3 variant T335_06M/GpL16-k0 (homodimerized antibody, Ho Ab) (antibody, human IgG1, kappa)
heavy: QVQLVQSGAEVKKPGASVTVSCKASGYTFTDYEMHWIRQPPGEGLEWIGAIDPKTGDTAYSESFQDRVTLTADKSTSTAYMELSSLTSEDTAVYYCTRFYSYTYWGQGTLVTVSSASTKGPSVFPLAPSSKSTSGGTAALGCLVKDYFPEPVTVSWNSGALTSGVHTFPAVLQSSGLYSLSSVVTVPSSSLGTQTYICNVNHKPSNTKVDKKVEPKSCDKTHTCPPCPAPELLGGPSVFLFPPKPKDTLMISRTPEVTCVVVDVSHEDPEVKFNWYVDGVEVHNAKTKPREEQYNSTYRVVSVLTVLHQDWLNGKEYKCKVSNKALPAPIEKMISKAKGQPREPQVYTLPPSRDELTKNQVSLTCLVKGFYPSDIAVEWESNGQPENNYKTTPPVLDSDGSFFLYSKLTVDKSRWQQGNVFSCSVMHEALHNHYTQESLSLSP
light: DIVMTQSPLSLPVTPGEPASISCQASESLVHSNRNTYLHWYLQKPGQSPQLLIYKVSNRFSGVPDRFSGSGSGTDFTLKISRVEAEDVGVYYCSQNTHVPPTFGQGTKVEIERTVAAPSVFIFPPSDEQLKSGTASVVCLLNNFYPREAKVQWKVDNALQSGNSQESVTEQDSKDSTYSLSSTLTLSKADYEKHKVYACEVTHQGLSSPVTKSFNRGEC
notes: Anti-glypican-3 IgG1 (GpH7-B3 background); substitution in both H chains; Position is EU numbering; also called Ho Ab T335M

In this assay the target is T1, FcγRIIa H (FcγRIIa, allotype with His …). Nature of the assay: SPR (Biacore T100), antibody captured on antigen-peptide chip, FcγRIIa H as analyte; response per captured antibody relative to GpH7-B3/GpL16-k0. The protocol: Analysis of interaction between objective antibody and the FcγR was carried out using Biacore T100 (GE Healthcare). HBS-EP+ (GE Healthcare) was used as the running buffer, and the measurement temperature was set to 25° C. Chips produced by immobilizing the antigen peptide by the amine coupling method to a Series S Sencor Chip CM5 (GE Healthcare), or alternatively, chips produced by allowing preliminarily biotinylated antigen peptides to interact with and immobilize onto a Series S Sensor Chip SA (certified) (GE Healthcare) were used. Antibodies of interest were captured onto an antigen peptide-immobilized chip, and allowed to interact to each FcγR diluted with running buffer. To regenerate and repeatedly use the chip, the antibodies captured on the chip were washed off by reacting 10 mM glycine-HCl, pH 1.5.
In general terms: Surface plasmon resonance follows binding to a sensor surface in real time, without labels.
For B1, the Ho/Con_2aH is 104 relative binding activity (control homodimerized antibody GpH7-B3/GpL16-k0 = 100).

As for B2, the Ho/Con_2aH is 106 relative binding activity (control homodimerized antibody GpH7-B3/GpL16-k0 = 100).

Take B3: the Ho/Con_2aH is 106 relative binding activity (control homodimerized antibody GpH7-B3/GpL16-k0 = 100).

Take B4: the Ho/Con_2aH was 115 relative binding activity (control homodimerized antibody GpH7-B3/GpL16-k0 = 100).

For B5, the Ho/Con_2aH is 122 relative binding activity (control homodimerized antibody GpH7-B3/GpL16-k0 = 100).

With B6, the Ho/Con_2aH was 110 relative binding activity (control homodimerized antibody GpH7-B3/GpL16-k0 = 100).

For the molecule B7, the Ho/Con_2aH was 115 relative binding activity (control homodimerized antibody GpH7-B3/GpL16-k0 = 100).

Take B8: the Ho/Con_2aH is 106 relative binding activity (control homodimerized antibody GpH7-B3/GpL16-k0 = 100).
